B1: KLHDC10 (parent)
chain: FGGTGIPFGESNGNGVHVCNVKYK
B2: TRIM29 (parent)
chain: FAEKGELRKSIFSESRKPTVSIME

Variants of: B1
Assay: protein stability index of a GFP-peptide fusion (GPS, HEK-293T) (PSI 1-6); higher = more stable
Details: c terminus: a fixed tail appended
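Also: lentivirally expressed fusions sorted by FACS into six bins by GFP to DsRed ratio, PSI derived from sequencing read proportions per bin multiplied by bin number.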

Row | Variant | protein stability index
1 | C19P | 2.21
2 | C19S | 2.01
3 | C19T | 2.01
4 | C19I | 1.75
5 | C19A | 2.31
6 | C19V | 2.07
7 | C19N | 2.38
8 | C19D | 2.62
9 | C19Q | 2.29
10 | C19H | 1.46
11 | C19G | 2.06
12 | C19Y | 2.06
13 | C19K | 2.08
14 | N20H | 1.48
15 | N20I | 1.82
16 | N20A | 2.35
17 | N20Q | 1.87
18 | N20K | 2.44
19 | N20G | 1.66
20 | N20F | 2.06
21 | N20C | 1.11
22 | N20W | 2.83

Row | Variant | protein stability index
23 | N20Y | 2.23
24 | N20S | 1.65
25 | N20M | 1.38
26 | N20P | 1.52
27 | N20L | 1.36
28 | N20V | 1.55
29 | N20R | 2.15
30 | N20E | 1.92
31 | N20T | 1.75
32 | N20D | 1.98
33 | K24Y | 1.88
34 | K24D | 2.4
35 | K24Q | 2
36 | K24G | 1.6
37 | K24P | 2.11
38 | K24C | 1.75
39 | K24N | 1.82
40 | K24E | 1.99
41 | K24V | 1.66
42 | K24I | 1.42
43 | K24H | 1.57
44 | K24A | 1.23

Row | Variant | protein stability index
45 | K24R | 1.63
46 | K24L | 2.06
47 | K24T | 3.32
48 | K24S | 1.66
49 | K24M | 2.42
50 | K24W | 2.61
51 | K24F | 1
52 | V16D | 2.42
53 | V16T | 1.98
54 | V16P | 2.43
55 | V16A | 2.6
56 | V16N | 2.06
57 | V16L | 1.39
58 | V16S | 2.27
59 | V16R | 2.97
60 | V16W | 2.49
61 | V16I | 2.46
62 | V16C | 1.19
63 | V16Y | 1.89
64 | V16Q | 2.04
65 | V16K | 2.15
66 | V16M | 1.89

Row | Variant | protein stability index
67 | V16G | 2.47
68 | V16F | 2.23
69 | V16H | 2.1
70 | V16E | 2.97
71 | V18Q | 2.04
72 | V18A | 2.1
73 | V18N | 2.31
74 | V18E | 2.75
75 | V18M | 2.24
76 | V18C | 2.06
77 | V18Y | 2.19
78 | V18I | 1.74
79 | V18T | 2.27
80 | V18K | 1.86
81 | V18L | 1.71
82 | V18H | 2.06
83 | V18R | 2.03
84 | V18D | 3.08
85 | V18G | 2.24
86 | V18S | 2.45
87 | V18W | 1.75
88 | V18F | 2.15

Row | Variant | protein stability index
89 | V18P | 1.97
90 | G15L | 1.73
91 | G15P | 2.06
92 | G15M | 1.52
93 | G15W | 1.62
94 | G15F | 1.49
95 | G15E | 2.34
96 | G15T | 1.92
97 | G15C | 1.58
98 | G15K | 2.1
99 | G15N | 1.52
100 | G15D | 2.3
101 | G15H | 1.9
102 | G15Y | 1.42
103 | G15A | 1.59
104 | G15Q | 1.78
105 | G15I | 1.77
106 | G15V | 1.9
107 | G15R | 1.82
108 | G15S | 2.14

Variants of: B2
Assay: as above
Details: c terminus: a fixed tail appended

Row | Variant | protein stability index
109 | S15F | 2.3
110 | S15K | 2
111 | S15P | 2.71
112 | S10Q | 1.52
113 | S10Y | 2.04
114 | S10C | 1.53
115 | R16G | 1.99
116 | S13Q | 1.75
117 | L7P | 2.52
118 | L7D | 1.78
119 | R8Q | 1.93
120 | E3N | 2.29
121 | E3Q | 2.05
122 | E3G | 2.95
123 | E3L | 1.04
124 | V20N | 1.27
125 | E24Y | 2.54
126 | E24N | 1.36
127 | E24S | 1.65
128 | E24Q | 1.95

Row | Variant | protein stability index
129 | E14N | 1.95
130 | E14M | 1.59
131 | E14W | 1.76
132 | E14V | 2.05
133 | E14Q | 1.54
134 | G5M | 1.72
135 | G5F | 2.17
136 | M23V | 2.01
137 | M23C | 2.16
138 | M23P | 1.84
139 | M23D | 1.92
140 | K4D | 2.06
141 | K4V | 2.38
142 | K4S | 1.8
143 | A2R | 3.42
144 | A2M | 3.21
145 | A2E | 3.35
146 | A2T | 2.36
147 | K17E | 1.67
148 | K17Q | 1.68

Row | Variant | protein stability index
149 | K17I | 2
150 | S21D | 1.65
151 | S21R | 2.19
152 | F12K | 3.54
153 | E6S | 1.8
154 | T19W | 2.94
155 | T19P | 2.39
156 | F1H | 4.29
157 | F1Q | 3.97
158 | P18F | 2.31
159 | P18R | 2.32
160 | P18A | 2.01
161 | P18S | 1.46
162 | I11T | 2.65
163 | I11C | 1.64
164 | I11A | 2.05
165 | K9V | 2.74
166 | K9G | 2.3
167 | K9R | 2.62

— the supplement of paper PMC10567573
